System: N_EGF_TCS_SK

## thrombin
  cleavage of the purified construct by thrombin (N-terminal protein sequencing): The thrombin cleavage was indeed found to be true in case of the purified construct, after treatment with thrombin
